Measured values from US20040001839A1 (published 2004).
Substitutions are numbered along the chain they refer to. No end group written: not given here. *: point of attachment. sulfate = O=S(=O)(O)*

T1: PSGL-1 on KG-1 cells (human, UniProt Q14242 42-412, sulfated tyrosine residues at the N-terminal site)
T1 construct: whole, on cells; results on KG-1 cells, lysates and membrane fractions are written against this molecule; also called CD162; P-Selectin Glycoprotein Ligand-1
T1 sequence (looked up): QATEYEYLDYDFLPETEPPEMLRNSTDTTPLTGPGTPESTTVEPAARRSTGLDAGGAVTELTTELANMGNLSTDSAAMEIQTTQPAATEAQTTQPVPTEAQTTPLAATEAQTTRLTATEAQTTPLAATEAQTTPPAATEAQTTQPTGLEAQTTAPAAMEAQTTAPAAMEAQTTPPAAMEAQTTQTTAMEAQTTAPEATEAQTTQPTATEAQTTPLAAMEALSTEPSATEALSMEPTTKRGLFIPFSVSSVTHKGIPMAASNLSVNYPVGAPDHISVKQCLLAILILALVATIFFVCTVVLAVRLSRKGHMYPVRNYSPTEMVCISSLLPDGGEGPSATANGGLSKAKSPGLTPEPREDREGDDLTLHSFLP

T2: Lumican (human, UniProt P51884 19-338, contains sulfated tyrosine residues)
T2 construct: The ~80 kDa band was identified as CC4 and lumican together; also called human lumican; H P-ligand 2
T2 sequence (looked up): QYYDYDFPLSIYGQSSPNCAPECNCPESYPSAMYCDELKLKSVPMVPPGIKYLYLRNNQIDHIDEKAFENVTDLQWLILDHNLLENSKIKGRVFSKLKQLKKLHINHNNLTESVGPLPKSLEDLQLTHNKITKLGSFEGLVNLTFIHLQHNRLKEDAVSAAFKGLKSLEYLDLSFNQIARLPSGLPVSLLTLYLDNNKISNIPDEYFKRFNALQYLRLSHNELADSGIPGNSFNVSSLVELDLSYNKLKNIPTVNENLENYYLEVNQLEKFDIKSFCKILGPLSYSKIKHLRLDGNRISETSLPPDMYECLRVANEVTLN

B1: CONY1 (scFv)
scFv: EVQLVESGGGVVRPGGSLRLSCAASGFTFDDYGMSWVRQAPGKGLEWVSGINWNGGSTGYADSVKGRFTISRDNAKNSLYLQMNSLRAEDTAVYYCARMRAPVIWGQGTLVTVSRGGGGSGGGGSGGGGSSELTQDPAVSVALGQTVRITCQGDSLRSYYASWYQQKPGQAPVLVIYGKNNRPSGIPDRFSGSSSGNTASLTITGAQAEDEADYYCNSRDSSGNHVVFGGGTKLTVLGAAAKAK
notes: also called Y1-kak; Y1 scFv monomer
B2: Y1-cys-kak (cysteine dimer) (other)
scFv 1: MEVQLVESGGGVVRPGGSLRLSCAASGFTFDDYGMSWVRQAPGKGLEWVSGINWNGGSTGYADSVKGRFTISRDNAKNSLYLQMNSLRAEDTAVYYCARMRAPVIWGQGTLVTVSRGGGGSGGGGSGGGGSSELTQDPAVSVALGQTVRITCQGDSLRSYYASWYQQKPGQAPVLVIYGKNNRPSGIPDRFSGSSSGNTASLTITGAQAEDEADYYCNSRDSSGNHVVFGGGTKLTVLGGGGCKAK
scFv 2: B2 scFv 1
modifications: Interchain disulfide between Cys 243 of chain 1 and Cys 243 of chain 2; in the FACS of paragraph 474 the dimer also carried FITC.
notes: also called Y1-cys-kak scFv dimer; S-S Y1 dimer
B3: F-YY (peptide)
peptide: VRPEHPAETEYESLYPEDDL
notes: also called Fibrinogen-γ-prime chain peptide, non-sulfated
B4: Y1 scFv (scFv)
scFv: EVQLVESGGGVVRPGGSLRLSCAASGFTFDDYGMSWVRQAPGKGLEWVSGINWNGGSTGYADSVKGRFTISRDNAKNSLYLQMNSLRAEDTAVYYCARMRAPVIWGQGTLVTVSRGGGGSGGGGSGGGGSSELTQDPAVSVALGQTVRITCQGDSLRSYYASWYQQKPGQAPVLVIYGKNNRPSGIPDRFSGSSSGNTASLTITGAQAEDEADYYCNSRDSSGNHVVFGGGTKLTVLGAAAEQKLISEEDLNGAA
notes: Fully human scFv from the Nissim I phage library; Used biotin-labelled in most Western blots; also called scFv Y1; scFv-Y1
B5: Y17 scFv (scFv)
scFv: B4 scFv with M99L, R100T, A101H, V103Y, I104F
notes: Human scFv selected on platelets in the same way as Y1; also called biotin labeled-Y17
B6: P-2-S (peptide)
peptide: TDLY(sulfate)DY(sulfate)Y(sulfate)PEEDTE
notes: also called residues 273-285 of GPIbα, sulfated
B7: Y1-IgG (antibody, V domains shown)
VH: EVQLVESGGGVVRPGGSLRLSCAASGFTFDDYGMSWVRQAPGKGLEWVSGINWNGGSTGYADSVKGRFTISRDNAKNSLYLQMNSLRAEDTAVYYCARMRAPVIWGQGTLVTVSR
VL: SELTQDPAVSVALGQTVRITCQGDSLRSYYASWYQQKPGQAPVLVIYGKNNRPSGIPDRFSGSSSGNTASLTITGAQAEDEADYYCNSRDSSGNHVVFGGGTKLTVL
B8: F-Y*Y* (peptide)
peptide: VRPEHPAETEY(sulfate)ESLY(sulfate)PEDDL
notes: also called Fibrinogen-γ-prime chain peptide, sulfated
B9: P-3-S (peptide)
peptide: GDEGDTDLY(sulfate)DY(sulfate)Y(sulfate)P
notes: also called residues 268-280 of GPIbα, sulfated

Key:
[1] = target: T1, PSGL-1 on KG-1 cells; test: second radio receptor binding assay on KG-1 cells, labeled tracer 100 ng/tube
Procedure: (§1) The assay tubes contained 5×10⁶ KG-1 cells per 0.2 ml and a labeled tracer with varying amounts of unlabeled competitor, in PBS+0.1% BSA, pH 7.4. After one hour incubation with agitation at 4° C., the cells were thoroughly washed with cold buffer and taken for radioactivity counting.

[2] = target: T1, PSGL-1 on KG-1 cells; test: radio receptor binding assay on KG-1 cells, tracer 125I-Y1-IgG 2 ng/tube
Procedure: as §1

[3] = target: T1, PSGL-1 on KG-1 cells; test: FACS on KG-1 cells, FITC-labeled
[4] = target: T1, PSGL-1 on KG-1 cells; test: radioreceptor assay, ELISA or FACS; KG-1 cells
[5] = target: T1, PSGL-1 on KG-1 cells; test: radio receptor assay on KG-1 cells, dimer as competitor
[6] = target: B4; test: competitive FACS: Y1-scFv 1 µg preincubated with peptide at 2.5 µM, residual binding to washed platelets
Procedure: (§2) In addition, FACS analysis using washed platelets was carried out. […] A polystyrene microtiter maxisorb plate was coated with (a) purified glycocalicin or (b) washed platelets. […] The plate was then incubated with rabbit anti-scFv followed by addition of anti rabbit-HRP (horse radish peroxidase) and HRP substrate. […] The optical density was measured at A₄₀₅. Each sample was assayed in duplicate, and the average was calculated.

[7] = target: B4; test: competition ELISA: Y1 0.25 µg/well preincubated with peptide at 25 µM, residual binding to glycocalicin
[8] = target: B4; test: competition ELISA: Y1 0.25 µg/well preincubated with peptide at 0.5 µM, residual binding to glycocalicin
[9] = target: B4; test: competitive FACS: Y1-scFv 1 µg preincubated with peptide at 200 µM, residual binding to washed platelets
Procedure: as §2

[10] = target: B4; test: competition ELISA: Y1 0.25 µg/well preincubated with peptide at 2.5 µM, residual binding to glycocalicin
[11] = target: B4; test: competition ELISA: peptide (1, 10, 100 µM) preincubated with scFv Y1, binding to immobilized glycocalicin
[12] = target: T2, Lumican; test: Western blot of human plasma proteins
[13] = target: T1, PSGL-1 on KG-1 cells; test: Western blot of RP-HPLC KG-1 membrane fraction after O-Sialo glycoprotein endopeptidase, 30' at 37° C.
[14] = target: T3, GPIbα small N-terminal 42 kDa fragment (His1-Leu275) (human, UniProt P07359 17-291); test: Western blot of cathepsin G digested glycocalicin
T3 construct: also called smaller N-terminal fragment (cathepsin G)
Source text: Glycocalicin and glycocalicin fragments generated by cathepsin G digestion were separated on SDS-polyacrylamide gels and transferred to nitrocellulose.

[15] = target: T1, PSGL-1 on KG-1 cells; test: FACS on KG-1 cells

T3 sequence (P07359 17-291 limits assumed): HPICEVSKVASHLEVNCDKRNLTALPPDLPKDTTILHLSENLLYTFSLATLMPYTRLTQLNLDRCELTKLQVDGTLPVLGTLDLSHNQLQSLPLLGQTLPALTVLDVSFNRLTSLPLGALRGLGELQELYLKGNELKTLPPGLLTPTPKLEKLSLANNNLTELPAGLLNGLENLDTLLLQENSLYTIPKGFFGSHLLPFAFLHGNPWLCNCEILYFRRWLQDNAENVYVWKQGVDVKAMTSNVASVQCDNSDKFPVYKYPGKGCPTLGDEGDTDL

B1 showed a Kd [1] of about 1000 nM.

For B2, the Kd [2] was about 40 nM, the “fold higher affinity than CONY1” value [2] was 30 fold and the “fold lower affinity than the full Y1 antibody” value [2] was 2 fold. The “fold less material than the monomer” value [3] was 10 fold, the “fold higher binding than the Y1 scFv monomer” value [4] was at least 20 fold and the “fold more efficient than the monomer” value [5] was 30 fold. The Kd [1] was about 50 nM and the “fold higher affinity than CONY1” value [1] was 20 fold.

With REEGRQHFFLLEGRSSYS (also called negative control peptide) [EGR] the “Residual Binding of Y1 (% of baseline) (Geo Mean)” value [6] was 96%, the “Residual Binding of Y1 (% of baseline)” value [7] was 89% and the “Residual Binding of Y1 (% of baseline)” value [8] was 121%. For the same binder, the “Residual Binding of Y1 (% of baseline) (Geo Mean)” value [9] was 119% and the “Residual Binding of Y1 (% of baseline)” value [10] was 100%.

B3: no binding (tested: 100 µM) [11].

B4: binds [12]; binds [13].

B5: no binding [14]; binds [15].

With B6 the “Residual Binding of Y1 (% of baseline) (Geo Mean)” value [6] was 61%, the “Residual Binding of Y1 (% of baseline)” value [7] was 15% and the “Residual Binding of Y1 (% of baseline)” value [8] was 78%. For the same binder, the “Residual Binding of Y1 (% of baseline) (Geo Mean)” value [9] was 7% and the “Residual Binding of Y1 (% of baseline)” value [10] was 52%.

B7 gave a Kd [2] of about 20 nM.

B8: no binding (tested: 100 µM) [11].

B9 was tested, and the “Residual Binding of Y1 (% of baseline) (Geo Mean)” value [6] was 82%, the “Residual Binding of Y1 (% of baseline)” value [7] was 21% and the “Residual Binding of Y1 (% of baseline)” value [8] was 80%. For the same binder, the “Residual Binding of Y1 (% of baseline) (Geo Mean)” value [9] was 26% and the “Residual Binding of Y1 (% of baseline)” value [10] was 67%.
